Values of other authors, collected in article PMC8400902.
pKd: −log10 of the molar value. Like-named read-outs stand apart in the source and are kept apart here. One block for each substance: values may come before it.

Experiments:
[1] = target: Amyloid beta (Homo sapiens) (UniProt P05067)
[2] = target: Amyloid beta (Homo sapiens) (UniProt P05067); remark: listed apart in the source
[3] = target: Amyloid beta fibril (Homo sapiens) (UniProt P05067)

Serum amyloid P component, sequence (P02743 20-222): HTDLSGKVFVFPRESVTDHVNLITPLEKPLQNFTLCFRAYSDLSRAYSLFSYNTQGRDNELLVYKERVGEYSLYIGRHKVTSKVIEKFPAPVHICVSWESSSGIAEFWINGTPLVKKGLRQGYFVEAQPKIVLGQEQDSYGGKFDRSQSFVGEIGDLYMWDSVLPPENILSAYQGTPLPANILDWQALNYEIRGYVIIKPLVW
Agrin, sequence (O00468 1864-2068): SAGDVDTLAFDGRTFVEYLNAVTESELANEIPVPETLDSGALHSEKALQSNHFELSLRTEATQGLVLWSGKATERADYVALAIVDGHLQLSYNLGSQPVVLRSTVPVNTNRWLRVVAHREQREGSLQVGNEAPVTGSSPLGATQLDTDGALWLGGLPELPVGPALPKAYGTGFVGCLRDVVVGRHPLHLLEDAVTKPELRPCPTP
Haptoglobin, sequence (P00738 19-160): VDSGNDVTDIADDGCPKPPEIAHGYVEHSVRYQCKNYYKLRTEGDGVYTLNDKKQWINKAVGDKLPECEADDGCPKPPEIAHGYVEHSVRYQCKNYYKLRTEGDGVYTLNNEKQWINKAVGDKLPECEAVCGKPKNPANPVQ

- pKd [1]: 8.22
Substance: Serum amyloid P component (from UniProt P02743)

- pKd [2]: 6.52
Substance: Haptoglobin (from UniProt P00738)

- pKd [3]: 8.46
Substance: Agrin (from UniProt O00468)
